Results on 2 molecules are retold here after US20230312724A1 (KADMON, published 2023).

In assay [1] the target is T1, human B7-H4-Fc (human).
T1 construct: also called hB7-H4-Fc; hB7-H4 Fc
The experiment in a line: ELISA, coated hB7-H4-Fc. A general note: An ELISA detects its analyte on a solid surface through an enzyme-linked reagent.

The target of assay [2] is T2, IgV domain of human B7-H4-Fc (human).
T2 construct: also called hB7-H4 IgV domain
Briefly: ELISA, coated hB7-H4 IgV domain. On the procedure:
(§1) ELISA experiments were performed to determine binding to hB7-H4-Fc (FIG. 5A), hB7-H4-his (FIG. 5B), mB7-H4-Fc domain (FIG. 5C), hB7-H4 IgV domain (FIG. 5D), and hB7-H4 IgC domain (FIG. 5E). Flow cytrometry experiments were performed to determine binding to CHO cells expressing hB7-H4 (FIG. 5F) or mB7-H4 (FIG. 5G). […] A cross-reactive IgV binding antibody and an IgC binding antibody were used as controls.
(§2) About 1-2 μg/ml of human or mouse B7-H4-Fc (or his-tagged) was immobilized on ELISA plates (Immuno 2HB, Thermo scientific, cat #3455) at 4° C. overnight. After blocking the plates with 3% PBS+milk, serial diluted antibodies were added to the blocked plates and incubated at RT for 1-1.5 h. After washing the plates with PBS-T (0.05%), horse radish peroxidase (HRP)-conjugated antibody targeting the hFab was added to the plate. Signals were developed by adding 3,3′,5,5′-Tetramethylbenzidine (TMB (followed 1N of H₂SO₄ to stop the reaction. The OD at 450 nm was read by ELISA plate reader (Infinite M1000 from TECAN). GraphPad from Prism was used to plot OD450 vs. antibody concentration curve and to calculate the EC50 values.

Assay [3] has as its target T1, human B7-H4-Fc. The experiment in a line: ELISA, coated hB7-H4-Fc. On the procedure: as §1, §2
This is another data set of the same source.

The target in assay [4] is T3, IgV domain of mouse B7-H4-Fc (mouse; human).
T3 construct: also called mB7-H4 IgV domain
The experiment in a line: ELISA on coated IgV domain of mB7-H4. On the procedure: as §2

For assay [5], the target named is T2, IgV domain of human B7-H4-Fc. The experiment in a line: ELISA, coated hB7-H4 IgV domain. In a few lines: (§3)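 OD450 was plotted against antibody concentration to derive EC50. Plates carried ~1-2 μg/ml human or mouse B7-H4-Fc (or his-tagged) coated overnight at 4° C; antibodies in serial dilution incubated 1-1.5 h at RT, with HRP-anti-hFab/TMB detection.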
This is another data set of the same source.

Assay [6] has the same target. Briefly: ELISA on coated IgV domain of hB7-H4. On the procedure:
as §2

For assay [7], the target named is T4, mouse B7-H4-Fc (mouse; human).
T4 construct: also called mB7-H4-Fc; mB7-H4-hFc
The experiment in a line: ELISA, coated mB7-H4-Fc (title on the sheet: Binding to mB7H4-Fc). On the procedure:
ELISA experiments were performed to determine binding to hB7-H4-Fc (FIG. 4A), hB7-H4-his (FIG. 4B), hB7-H4 IgV domain (FIG. 4C), and mB7-H4 IgV domain (FIG. 4D). Flow cytrometry experiments were performed to determine binding to CHO cells expressing hB7-H4 (FIG. 4E) or mB7-H4 (FIG. 4F). […] A cross-reactive IgV binding antibody was used as a control.
as §2

In assay [8] the target is T1, human B7-H4-Fc. Briefly: ELISA on coated hB7-H4-Fc. On the procedure: as §2
Assay [9] has as its target T5, human B7-H4-his (human, UniProt Q7Z7D3 25-259).
T5 construct: also called hB7-H4-his; hB7-H4 his; not shown: his tag
T5 sequence: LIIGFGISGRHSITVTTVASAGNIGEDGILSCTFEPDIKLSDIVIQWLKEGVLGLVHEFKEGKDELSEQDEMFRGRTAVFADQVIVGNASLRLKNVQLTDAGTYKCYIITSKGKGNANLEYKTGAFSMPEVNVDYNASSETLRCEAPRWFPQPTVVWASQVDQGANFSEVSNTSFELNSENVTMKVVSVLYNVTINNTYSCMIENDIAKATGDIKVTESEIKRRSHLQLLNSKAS
Briefly: ELISA on coated hB7-H4-his. On the procedure: as §2

Assay [10] concerns the target T4, mouse B7-H4-Fc. The experiment in a line: ELISA, coated mB7-H4-Fc. On the procedure:
as §1, §2

Assay [11] has as its target T1, human B7-H4-Fc. The experiment in a line: ELISA, coated hB7-H4-Fc. In a few lines:
as §3
This is another data set of the same source.

The target in assay [12] is T4, mouse B7-H4-Fc. Briefly: ELISA on coated mB7-H4-Fc. On the procedure:
as §2

The target of assay [13] is T4, mouse B7-H4-Fc. Briefly: ELISA, coated mB7-H4-Fc. In a few lines: as §3
This is another data set of the same source.

Assay [14] concerns the target T6, human B7-H4 expressed on cells (human, UniProt Q7Z7D3 25-282).
T6 construct: Transfected CHO cells or tumor cell lines that carry hB7-H4; also called cellular hB7-H4
T6 sequence: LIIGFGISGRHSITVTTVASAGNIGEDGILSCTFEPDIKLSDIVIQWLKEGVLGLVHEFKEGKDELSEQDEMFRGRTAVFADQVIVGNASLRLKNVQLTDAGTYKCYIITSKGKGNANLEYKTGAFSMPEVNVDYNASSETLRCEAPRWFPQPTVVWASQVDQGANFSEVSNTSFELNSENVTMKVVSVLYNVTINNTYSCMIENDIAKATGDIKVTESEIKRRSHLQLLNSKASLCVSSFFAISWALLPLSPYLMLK
Briefly: flow cytometry, SK-BR-3 cells. A digest of the protocol: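 Serially diluted antibodies or fusion proteins were incubated with cells at 1×10⁶ cells/ml in ice-cold FACS buffer for 1 h at 4 °C. After three washes, bound protein was detected with a 1:200 secondary antibody, 30 min at 4 °C in the dark, and read by flow cytometry.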

Assay [15] has as its target T7, mouse B7-H4 expressed on cells (mouse, UniProt Q7TSP5 25-257).
T7 construct: also called cellular mB7-H4; mB7-H4/CT26
T7 sequence: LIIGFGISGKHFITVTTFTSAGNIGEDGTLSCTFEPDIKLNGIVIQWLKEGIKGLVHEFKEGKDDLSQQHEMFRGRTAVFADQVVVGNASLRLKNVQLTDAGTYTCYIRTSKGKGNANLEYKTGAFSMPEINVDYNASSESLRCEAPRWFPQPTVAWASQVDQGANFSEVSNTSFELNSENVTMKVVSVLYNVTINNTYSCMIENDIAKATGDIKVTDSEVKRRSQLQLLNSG
The experiment in a line: flow cytometry on mB7H4-CT26 cells. On the procedure:
(§4) Cells were harvested, washed once, and then re-suspended to the concentration of 1×10⁶ cells/ml in ice cold FACS Buffer. 25 μl of cell suspension was added to each well of a 96-well round-bottom microliter plate. Serially diluted antibodies or fusion proteins were added to each well and incubated for 1 hour at 4° C. Cells were washed three times by centrifugation at 1500 rpm for 5 minutes, and then stained with secondary antibody (1:200 dilution) for 30 min at 4° C. in the dark. Cells were washed once, re-suspended in 100 μl PBS buffer and then analyzed using Guava Flow Cytometry EasyCyte system.

The target in assay [16] is T6, human B7-H4 expressed on cells. Briefly: flow cytometry, MX-1 cells. On the procedure: as §4
(In flow cytometry, cells or beads pass a laser one at a time.)

T1 sequence (chain, as listed by the source): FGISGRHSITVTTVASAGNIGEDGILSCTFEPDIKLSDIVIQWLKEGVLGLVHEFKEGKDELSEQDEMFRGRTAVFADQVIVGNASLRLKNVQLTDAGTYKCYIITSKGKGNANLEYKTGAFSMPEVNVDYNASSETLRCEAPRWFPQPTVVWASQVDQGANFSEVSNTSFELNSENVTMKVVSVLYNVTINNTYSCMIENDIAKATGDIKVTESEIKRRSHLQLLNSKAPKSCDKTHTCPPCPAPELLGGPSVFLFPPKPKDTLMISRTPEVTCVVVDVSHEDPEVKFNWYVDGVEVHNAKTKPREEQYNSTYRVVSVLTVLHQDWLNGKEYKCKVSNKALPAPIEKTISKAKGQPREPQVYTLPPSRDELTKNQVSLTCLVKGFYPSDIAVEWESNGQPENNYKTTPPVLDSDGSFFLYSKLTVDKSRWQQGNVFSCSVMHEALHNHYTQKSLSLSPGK
T2 sequence (chain, as listed by the source): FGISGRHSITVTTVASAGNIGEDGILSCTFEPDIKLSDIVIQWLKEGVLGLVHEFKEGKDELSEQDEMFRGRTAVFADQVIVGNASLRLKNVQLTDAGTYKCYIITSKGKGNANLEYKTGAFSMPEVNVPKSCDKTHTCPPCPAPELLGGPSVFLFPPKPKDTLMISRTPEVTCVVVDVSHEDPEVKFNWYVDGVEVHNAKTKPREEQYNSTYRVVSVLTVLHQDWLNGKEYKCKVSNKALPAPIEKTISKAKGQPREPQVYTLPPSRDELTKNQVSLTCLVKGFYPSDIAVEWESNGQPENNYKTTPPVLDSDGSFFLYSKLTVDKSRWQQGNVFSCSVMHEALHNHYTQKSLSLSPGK
T4 sequence (chain, as listed by the source): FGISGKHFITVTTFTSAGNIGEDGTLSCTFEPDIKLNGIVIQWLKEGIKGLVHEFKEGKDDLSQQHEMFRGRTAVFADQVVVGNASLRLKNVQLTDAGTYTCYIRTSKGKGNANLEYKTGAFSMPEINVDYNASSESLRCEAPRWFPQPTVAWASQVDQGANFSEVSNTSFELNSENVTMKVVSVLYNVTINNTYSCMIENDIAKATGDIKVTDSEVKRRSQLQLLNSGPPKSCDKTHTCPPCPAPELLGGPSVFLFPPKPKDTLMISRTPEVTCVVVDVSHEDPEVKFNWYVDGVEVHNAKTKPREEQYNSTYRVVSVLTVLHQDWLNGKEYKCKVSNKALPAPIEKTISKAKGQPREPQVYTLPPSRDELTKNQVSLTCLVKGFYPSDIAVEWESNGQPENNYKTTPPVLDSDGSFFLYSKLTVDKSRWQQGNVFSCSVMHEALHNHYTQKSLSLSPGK
T3 sequence (chain, as listed by the source): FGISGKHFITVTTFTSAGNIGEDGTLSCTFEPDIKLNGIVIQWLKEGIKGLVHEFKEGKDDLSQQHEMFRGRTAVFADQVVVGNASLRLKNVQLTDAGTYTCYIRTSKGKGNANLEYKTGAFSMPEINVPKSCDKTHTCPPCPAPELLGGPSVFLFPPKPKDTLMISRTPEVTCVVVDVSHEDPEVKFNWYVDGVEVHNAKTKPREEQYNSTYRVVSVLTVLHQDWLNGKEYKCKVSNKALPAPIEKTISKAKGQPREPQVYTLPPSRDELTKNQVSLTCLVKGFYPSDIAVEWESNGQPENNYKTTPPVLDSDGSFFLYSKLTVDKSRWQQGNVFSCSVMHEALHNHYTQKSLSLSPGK

B1: Control antibody 1 (antibody 20502 described in US20190085080A1) (antibody, V domains shown)
VH: QLQLQESGPGLVKPSETLSLTCTVSGGSIKSGSYYWGWIRQPPGKGLEWIGNIYYSGSTYYNPSLRSRVTISVDTSKNQFSLKLSSVTAADTAVYYCAREGSYPNQFDPWGQGTLVTVSS
VL: EIVMTQSPATLSVSPGERATLSCRASQSVSSNLAWYQQKPGQAPRLLIYGASTRATGIPARFSGSGSGTEFTLTISSLQSEDFAVYYCQQYHSFPFTFGGGTKVEIK
notes: also called (+) control Ab1; (+) Ab1
Usually EC50 (read off the curve) stands for the concentration at which the effect is half-maximal. A low value points to greater potency. As to B1, the half-maximal effective concentration (EC50 (read off the curve)) is roughly 0.02 µg/mL in assay [1]; roughly 0.2 nM in [2]; roughly 0.07 nM in [3]; roughly 0.2 nM in assay [4]; roughly 0.2 nM in assay [5]; roughly 0.2 nM in assay [6]. Also, the 50% effective concentration (EC50 (read off the curve)) is roughly 0.02 µg/mL in assay [7]; roughly 0.1 nM in assay [8]; roughly 0.2 nM in [9]; roughly 0.1 nM in assay [10]; roughly 0.1 nM in assay [11]; roughly 0.1 nM in assay [12]. Further, the 50% effective concentration (EC50 (read off the curve)) in [13] is roughly 0.1 nM.

B2: 39A11/57G8 (antibody, human IgG1, V domains shown)
VH: EVQLLESGGGLVQPGGSLRLSCAASGFTFSSYGMHWVRQAPGKGLEWVASISSSSGYIYYADSVKGRFTISRDNSKNTLYLQMNSLRAEDTAVYYCARASSGMDVWGQGTTVTVSS
VL: DIQMTQSPSSLSASVGDRVTITCRASQSIRSYLNWYQQKPGKAPKLLIYYASSLQSGVPSRFSGSGSGTDFTLTISSLQPEDFATYYCQQYYSTPLTFGQGTKVEIK
notes: 39A11 VH with 57G8 VL
One may read the EC50 as the concentration that produces a half-maximal response. Regarding B2, the half-maximal effective concentration (EC50) in assay [14] worked out at 1.9 nM; in assay [16], 8.87 nM. Besides, the concentration for a half-maximal effect (EC50 (read off the curve)) in assay [15] was roughly 2 nM.
